Results on 37 sequences are retold here after the supplement of paper PMC7877785.

The nature of the data set: self-splicing fitness, log relative to wild type (ln ratio); higher = more splicing; Tetrahymena group I intron in knt gene, E. coli kanamycin selection, DiMSum; sequences stand for … in CUCUCU…GGAGGGAAAAGUUAUCAGGCAUGCACCUGGUAGCUAGUCUUUAAACCAAUAGAUUGCAUCGGUUUAAAAGGCAAGACCGUCAAAUUGCGGGAAAGGGGUCAACAGCCGUUCAGUACCAAGUCUCAGGGGAAACUUUGAGAUGGCCUUGCAAAGGGUAUGGUAAUAAGCUGACGGACAUGGUCCUAACCACGCAGCCAAGUCCUAAGUCAACAGAUCUUCUGUUGAUAUGGAUGCAGUUCACAGACUAAAUGUCGGUCGGGGAAGAUGUAUUCUUCUCAUAAGAUAUAGUCGGACCUCUCCUUAAUGGGAGCUAGCGGAUGAAGUGAUGCAACACUGGAGCCGCUGGGAACUAAUUUGUAUGCGAAAGUAUAUUGAUUAGUUUUGGAGUACUCGUGGUCG
The essentials: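 Pooled colonies went to amplicon sequencing on an Illumina HiSeq 2500 after six replicate transformations. The plates were LB agar with 100 μg/mL carbenicillin, 50 μM IPTG and 0.2% rhamnose, with or without 25 μg/mL kanamycin, incubated overnight at 37°C or 30°C. The E. coli BL21(DE3) library had all eight P1ex-region intron nucleotides randomised, the intron placed in the knt kanamycin-resistance gene on pET-22b(+). DiMSum fitness is the error-weighted combination of replicate fold changes, kanamycin against none, normalised to wild type.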

± gives the uncertainty stated by the source.

For GAGAAGCAAUAUUACGGAGC, the “self-splicing fitness (ln)” value (30 °C) is -3.83 ± 0.4 and the “self-splicing fitness (ln)” value (37 °C) was -1.84 ± 0.23. On to GAGAAGCAAUAUUACGGAUC, for which the “self-splicing fitness (ln)” value was -2.34 ± 0.34 (30 °C) and -1.97 ± 0.4 (37 °C).

Regarding GAGAAGCAAUAUUACGGAUU, the “self-splicing fitness (ln)” value reads like this: (30 °C) -2.77 ± 0.11; (37 °C) -1.63 ± 0.11. For GAGAAGCAAUAUUACGGCCA, the “self-splicing fitness (ln)” value is -0.417 ± 0.16 (30 °C) and -0.286 ± 0.17 (37 °C). The like results for GAGAAGCAAUAUUACGGGCG were, in that order, -1.52 ± 0.14 and -0.609 ± 0.13.

On to GAGAAGCAAUAUUACGGGGG, for which the “self-splicing fitness (ln)” value (37 °C) was -1.8 ± 0.47. GAGAAGCAAUAUUACGGUAG: the “self-splicing fitness (ln)” value runs as follows: (30 °C) -3.75 ± 0.29; (37 °C) -2.68 ± 0.24. The like results for GAGAAGCAAUAUUACGGUGC were, in that order, -2.81 ± 0.19 and 0.59 ± 0.21.

Regarding GAGAAGCAAUAUUACGGUUC, the “self-splicing fitness (ln)” value (30 °C) is -2.91 ± 0.13 and the “self-splicing fitness (ln)” value (37 °C) is -1.5 ± 0.13. Consider GAGAAGCAAUAUUACGGUUU, for which the “self-splicing fitness (ln)” value is -1.07 ± 0.099 (30 °C) and -1.21 ± 0.14 (37 °C). As for GAGAAGCAAUAUUACGUACU, the “self-splicing fitness (ln)” value (30 °C) is 0.0719 ± 0.08 and the “self-splicing fitness (ln)” value (37 °C) is 0.0321 ± 0.11.

In the case of GAGAAGCAAUAUUACGUCCG, the “self-splicing fitness (ln)” value by setting is: (30 °C) -1.48 ± 0.091; (37 °C) -0.864 ± 0.1. The like results for GAGAAGCAAUAUUACGUCUG were, in that order, -0.739 ± 0.13 and 0.277 ± 0.15.

For the sequence GAGAAGCAAUAUUACGUGGG, the “self-splicing fitness (ln)” value runs as follows: (30 °C) -2.74 ± 0.14; (37 °C) -2.29 ± 0.19.

For the sequence GAGAAGCAAUAUUACGUUCU, the “self-splicing fitness (ln)” value is -4 ± 0.36 (30 °C) and -2.01 ± 0.23 (37 °C). The like results for GAGAAGCAAUAUUACGUUUG were, in that order, -2.98 ± 0.11 and -1.85 ± 0.14. On to GAGCAGCAAUAUUACGAACU, for which the “self-splicing fitness (ln)” value is -1.17 ± 0.12 (30 °C) and -0.227 ± 0.17 (37 °C).

Consider GAGCAGCAAUAUUACGACCU, for which the “self-splicing fitness (ln)” value was -1.22 ± 0.17 (30 °C) and 0.00279 ± 0.23 (37 °C). Consider GAGCAGCAAUAUUACGAGCU, for which the “self-splicing fitness (ln)” value (30 °C) was -2.58 ± 0.12 and the “self-splicing fitness (ln)” value (37 °C) was -1.88 ± 0.18. Take GAGCAGCAAUAUUACGAUAU: the “self-splicing fitness (ln)” value was -2.17 ± 0.13 (30 °C) and -1.17 ± 0.15 (37 °C). For GAGCAGCAAUAUUACGCAGC, the “self-splicing fitness (ln)” value is -3.7 ± 0.21 (30 °C) and -2.61 ± 0.29 (37 °C).

Take GAGCAGCAAUAUUACGCAUG: the “self-splicing fitness (ln)” value was -3.03 ± 0.34 (30 °C) and -1.67 ± 0.31 (37 °C).

For GAGCAGCAAUAUUACGCCGU, the “self-splicing fitness (ln)” value (30 °C) was -1.39 ± 0.12 and the “self-splicing fitness (ln)” value (37 °C) is -0.525 ± 0.19. The corresponding values for GAGCAGCAAUAUUACGCGGG are -2.52 ± 0.21 and -1.96 ± 0.23. The corresponding values for GAGCAGCAAUAUUACGGAUC are -0.51 ± 0.12 and -0.724 ± 0.12. Consider GAGCAGCAAUAUUACGGGAA, for which the “self-splicing fitness (ln)” value (30 °C) was -3.18 ± 0.26 and the “self-splicing fitness (ln)” value (37 °C) was -2.05 ± 0.22. The corresponding values for GAGCAGCAAUAUUACGGUAC are -2.73 ± 0.14 and -0.416 ± 0.11. As to GAGCAGCAAUAUUACGGUCC, the “self-splicing fitness (ln)” value (30 °C) is -2.93 ± 0.18 and the “self-splicing fitness (ln)” value (37 °C) is -1.63 ± 0.17.

Take GAGCAGCAAUAUUACGUAAC: the “self-splicing fitness (ln)” value reads like this: (30 °C) -1.36 ± 0.11; (37 °C) -1.13 ± 0.18. The corresponding values for GAGCAGCAAUAUUACGUAAU are -1.59 ± 0.063 and -0.994 ± 0.1. For the sequence GAGCAGCAAUAUUACGUAUU, the “self-splicing fitness (ln)” value runs as follows: (30 °C) -2.62 ± 0.066; (37 °C) -1.32 ± 0.075. Take GAGCAGCAAUAUUACGUCCC: the “self-splicing fitness (ln)” value runs as follows: (30 °C) -0.684 ± 0.11; (37 °C) -0.465 ± 0.19. Regarding GAGCAGCAAUAUUACGUCUU, the “self-splicing fitness (ln)” value (30 °C) was -3.01 ± 0.19 and the “self-splicing fitness (ln)” value (37 °C) is -1.23 ± 0.15. As to GAGCAGCAAUAUUACGUGAU, the “self-splicing fitness (ln)” value (30 °C) is -2.21 ± 0.082 and the “self-splicing fitness (ln)” value (37 °C) is -0.968 ± 0.084. Consider GAGCAGCAAUAUUACGUUCC, for which the “self-splicing fitness (ln)” value runs as follows: (30 °C) -3.51 ± 0.17; (37 °C) -3.28 ± 0.21. The corresponding values for GAGGAGCAAUAUUACGACAC are -0.706 ± 0.35 and -0.696 ± 0.31.

For GAGGAGCAAUAUUACGACUA, the “self-splicing fitness (ln)” value is, setting by setting: (30 °C) -1.32 ± 0.43; (37 °C) -1.47 ± 0.37.
